In US20220380801A1, “TRIPARTITE SYSTEMS FOR PROTEIN DIMERIZATION AND METHODS OF USE” (priority 2019, published 2022):

Tested on: luciferase gene expression in HEK293 cells
Assay: AAV transduction, inducible luciferase transgene in trans
Assay type: cell-based, human
Conditions: two separate AAV8 preparations, simeprevir
Source text: AAV expression vectors were generated by subcloning specific promoter and transgene elements into an intermediate vector derived from pAAV-CMV (Takara) in which the CMV promoter downstream of the 5′ITR was removed and a WPRE element and SV40 polyA sequence were inserted upstream of the 3′ ITR.
To generate AAV encoding an inducible luciferase transgene, the ZHFD1-luciferase cassette was amplified by PCR from pZFHD1-Luciferase provided in the iDimerize regulated transcription system (Takara) and subcloned into the intermediate AAV vector. […]
Recombinant AAV (rAAV) was produced by triple-transfection of 40 T-175 cm^2 flasks containing HEK293 T-17 cells at 80% confluency using a standard helper-free approach. […] Fractions were taken from the ultraclear centrifuge tubes by piercing the tube with a 19 gauge syringe in the 60% layer below the clear band representing the virus and the purity of each fraction was assessed by SDS-PAGE of each fraction and subsequent Sypro Ruby analysis. […]
All rAAV transduction assays were performed in adherent HEK293 cells cultured in 96-well plates. Cells enzymatically dissociated from a tissue culture flask were counted and plated at 2.5×10^4 cells/well in a 96-well plate. […] For luminescence assays, SteadyGlo luciferase substrate (Promega) was added and luminescence was quantified with an Envision plate reader. […]

B1: PRSIM_23: Tn3 protein specific for HCV NS3/4A PR (S139A):simeprevir complex, SEQ ID NO: 5 (protein)
chain: RLDAPSQIEVKDVTDTTALITWVDPRYDDIWWFELTYGIKDVPGDRTTIKLYLNDPYYSIGNLKPDTEYEVSLISYTGDSYSRSGSNPAKITFKTGL
modifications: PRSIM_23
  induction of luciferase activity: 228 fold
